B1: Recombinant C4b α chain (domain or fragment)
chain: AMELLQEEELIEEDDIPVRSFFPENWLWRVEEVPHSLQLSLLLPDSLTTWEIHGVSLSKSTGLCVATPARVRVFREFHLHLRLPVSIHRFEQLELRPVLYNYLDKDVPVSVHVSPVEGLCLAGGGGLAQQVLVPAGSARPVGFSVVPISAAAVSLKVVARGSFDFPVGDAVSKILQIANEGAIHQEELVYALNPQNVLGRNLEIPGHSDPNVIPDGDFRSFVRLTASDPLDTLGSEGALSPGGLASLLRLPRGCAEQTMFYLAPTLAASRYLDKTEQWSTLPPETKDHAVDLIQKGYTRIQEFRKNDGSYGAWLHRESSTWLTAFVLKVLSLAQEQVGGSPEKLQETAAWLLLQQKEDGSFHDPCPVIHRDMQGGLVGNDEKVALTAFVVIALHHGLAVFQDRNAEQFKRVENAISTANDFLGEKVSSGLLGSHAAAISAYALSLSGAPEQLQDIAHNNLMAMAQKIGDHLFWGTVPSSQSNTLSPTPAPQRPTDPMPQAPALWIETTAYALLHLLIREGKAEMADQTASWLTRQGSYKGGFRSTQDTVIALDALSAYWILSHTTEEKELNVTLSSMSRGGFKSHVVRLTNHQVKGLEEELQFSLGSKINVKVGGNSKGTLKILRAYNVIDLKNTTCQDLQIEVTVKGHVEYMLEANEDYEEYEYEDLPAQDDPGAHSQPVTPLQLFDG
B2: Recombinant CR1-like CCPs 1-3 (domain or fragment)
chain: not shown

Assays:
Assay in all cases: SPR; Biacore 8K, single-cycle; C4bα and C4bβ covalently immobilised on CM5 chip (about 1500 RU); CR1-like fragments or mutant as mobile phase, 1.56 × 10^-2 to 4 μM; 25 °C; 10 mM HEPES pH 7.4, 150 mM NaCl, 0.05% Tween-20; apparent KD = kd/ka
Details in all cases: both partners purified
[1] = molecular target: T1, Recombinant CR1-like CCPs 12-14 (pig)
T1 construct: porcine CR1-like, CCP domains 12-14; Section 2.12 describes 6His-sumo (N-terminal) and flag (C-terminal) tags and insect cells for 'CR1-like fragments' in general

Recombinant C4b α chain = molecular target: B1
Recombinant C4b β chain = molecular target: T2, Recombinant C4b β chain (pig)
T2 construct: beta chain of porcine complement C4b, expressed as a separate chain; source: Escherichia coli (pET28a), purified (Ni-NTA, SP-HP cation exchange); not shown: 6His, N-terminal, kept; Flag-ppase, N-terminal, kept

B1
Kd [1]: 317 nM

B2
Kd (Recombinant C4b α chain): 226 nM
Kd (Recombinant C4b β chain): 173 nM
